Test results from patent publication US11268120B2, “Identification of transglutaminase substrates and uses therefor” (Roche Sequencing Solutions, Inc., priority 2014, dated 2022).
Each block holds one molecule with its values, some of them ahead of it. No end group written: not given here. *: point of attachment. Cbz = O=C(OCc1ccccc1)*

Assays:
MTG [1] = molecular target: T1, MTG (Streptomyces mobaraensis, UniProt P81453); test: GLDH-coupled continuous assay for MTG activity in solution, Lys-containing substrate peptides; type: biochemical
T1 construct: purchased Zedira GmbH
T1 sequence (P81453 77-407): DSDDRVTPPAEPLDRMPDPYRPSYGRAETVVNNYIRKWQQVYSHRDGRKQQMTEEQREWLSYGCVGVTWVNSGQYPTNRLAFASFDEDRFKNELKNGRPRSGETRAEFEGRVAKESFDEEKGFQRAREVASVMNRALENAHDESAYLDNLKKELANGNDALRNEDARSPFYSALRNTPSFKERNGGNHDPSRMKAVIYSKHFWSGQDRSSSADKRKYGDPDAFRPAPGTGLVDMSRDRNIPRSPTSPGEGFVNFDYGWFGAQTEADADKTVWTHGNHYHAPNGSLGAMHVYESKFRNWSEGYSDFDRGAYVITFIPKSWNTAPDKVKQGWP
Description: (§1) FIG. 3 is a plot of MTG activity obtained by measuring rates of NADH oxidation at 340 nm and 37° C. using various concentrations of the di-peptide QG (1-20 mM) and the peptide […] (SEQ ID NO: 86) (0.2-5 mM) in the GLDH-coupled assay. The Michaelis-Menten equation was used to fit hyperbolic curves to the data points, giving Km and Vmax parameters and allowing calculation of turnover number (kcat) and catalytic efficiency (kcat/KM). Improved performance of array selected […] (SEQ ID NO: 86) (open squares) substrate was observed compared to standard QG-substrate (filled squares). ‘Z’ represents a carboxybenzyl protective group. […] The Michaelis-Menten equation was used to fit hyperbolic curves to the data points, giving Km and Vmax parameters as well as allowing calculation of turnover number (kcat) and catalytic efficiency (kcat/KM). Improved performance of array selected […] (SEQ ID NO: 80) (filled squares) substrate was observed as compared to a […] (SEQ ID NO: 81) substrate (filled circles). ‘Z-’ represents a carboxybenzyl protective group.
Lys-tag peptides were assayed in solution analog to the Gln-containing substrates: The assay was performed in a 96-well microtiter plate in the presence of 1.25 mM α-ketoglutarate, 100 μM Z-[…] (SEQ ID NO: 86) peptide as […], 0.2 U of glutamate dehydrogenase (GLDH), 500 μM NADH and Lys-containing substrate peptide concentrations ranging between 0 and 500 μM in 200 mM MOPS, 1 mM EDTA pH 7.2 (total volume per well 200 μl). The reaction was started by the addition of 0.1 U of MTG (Zedira GmbH) and the oxidation of NADH was continuously recorded against a blank at 340 nm for 20 min using a Biotek Synergy H4 microplate reader thermostated at 37° C. with short shaking intervals before each measurement. After a short lag phase, where the GLDH was saturated by MTG-mediated release of ammonia, linear rates of absorbance versus time, corresponding to MTG turnover, were observed, and subjected to Michaelis-Menten kinetic analysis.

MTG [2] = molecular target: T1, MTG; test: GLDH-coupled continuous assay for MTG activity in solution, Gln-containing substrate peptides; type: biochemical; conditions: pH 7.2, 37° C.
Description: as §1
It was next determined whether peptides selected in the array assay were also preferred substrates in the solution reaction. The performance of the […] (SEQ ID NO: 26) peptide found in the array assay and the QG peptide substrate commonly used for testing MTG activity were compared. […]
The assay was performed in a 96-well microtiter plate in the presence of 10 mM α-ketoglutarate, 10 mM glycine methyl ester as acyl acceptor, 2 U of glutamate dehydrogenase (GLDH), 500 μM NADH (i.e., reduced nicotinamide adenine dinucleotide) and Gln-containing substrate peptide concentrations ranging between 0.2 and 20 mM in 200 mM MOPS (i.e., 3-(N-morpholino)propanesulfonic acid), 1 mM EDTA pH 7.2 (total volume per well 200 μl). The reaction was started by the addition of 0.1 U of MTG (Zedira GmbH) and the oxidation of NADH was continuously recorded against a blank at 340 nm for 20 min using a Biotek Synergy H4 microplate reader thermostated at 37° C. with short shaking intervals before each measurement. […]

[3] = BIACORE 3000 binding kinetics of VitDBP constructs to biotin labeled 25-OH-VitD2; conditions: 25° C.
Description: Experiments were carried out to determine whether the addition of an array-selected motif interferes with the ability of VitDBP to bind to its natural ligand, 25-hydroxylated vitamin D2 (25-OH-VitD2). The glutamine donor motif selected for use was […] (i.e., SEQ ID NO 86). A BIACORE SA sensor was mounted into a BIACORE 3000 instrument. The instrument was tempered at 25° C. The sensor was preconditioned as recommended by the manufacturer (GE Healthcare). The system buffer was PBS pH 8.2 with 5% DMSO and 0.05% TWEEN20. The sample buffer was the system buffer supplemented with 1 mg per ml CMD (Sigma). From a 300 nM biotin labeled 25-OH-VitD2 (25-OH-VitD2-bi) sample solution 860 RU were captured on the sensor flow cell 2 by a 2 min injection at 10 μl per minute. The sensor surface was finally saturated by 5 μM amino-PEO-biotin (Pierce). As a reference, 1 μM amino-PEO-biotin was injected into flow cell 1 for 1 min at a rate of 10 μl per minute.
The analytes wt-VitDBP-His8 and wt-VitDBP-His8-Q2 were compared for their binding behavior towards 25-OH-VitD2. The Gln-motif was later ruthenylated by an MTG catalyzed reaction as described (FIGS. 10A and 10B).
The analytes were injected in concentration series of 600 nM, 200 nM, 67 nM, 22 nM, 7.4 nM and 0 nM (buffer only). The analyte association was monitored for 3 min and the dissociation for 5 min both at 20 μl per minute (FIGS. 11 and 12).
After each injection the system was regenerated by a 100 mM HCl injection for 1 minute and 15 seconds at 20 μl per minute followed by a 2 min injection of 10 mM glycine buffer pH 1.5. The data was overlayed in a BIACORE sensorgram and kinetic data was calculated by fitting a Langmuir 1:1 binding model to the data obtained as recommended by the manufacturer using the Biaevaluation Software version 4.1.

Molecule: Z-GGGARSKLGGGG
apparent difference in MTG catalytic efficiency compared to low-signal substrate GGGDEKPDGGGG (MTG [1]): at least 10 fold
Km (MTG [1]; Lys-peptide 0-500 μM, 100 μM Z-GGGDYALQGGGG, pH 7.2, 37° C.): 66.8 ± 20.2 µM
Vmax (MTG [1]; Lys-peptide, 0.1 U MTG, pH 7.2, 37° C.): 5.1 ± 0.5 pmol/s
kcat (MTG [1]; Lys-peptide, pH 7.2, 37° C.): 0.066 s⁻¹

Molecule: Z-GGGDEKPDGGGG (Cbz-GGGDEKPDGGGG) [reference compound]
MTG activity (in words) (MTG [1]; kinetic data could not be determined): extremely low activity

Molecule: Z-GGGDYALQGGGG (Cbz-GGGDYALQGGGG)
Km (MTG [2]; Gln-peptide 0.2-20 mM, 10 mM glycine methyl ester as acyl acceptor): 970 ± 320 µM
Vmax (MTG [2]; Gln-peptide, 0.1 U MTG): 0.46 ± 0.06 nmol/s
kcat (MTG [2]; Gln-peptide): 6.0 s⁻¹

Kd ([3]; Langmuir 1:1 binding model): 95 nM
ka ([3]; Langmuir 1:1 binding model): 13800 M⁻¹ s⁻¹
kd ([3]; Langmuir 1:1 binding model): 0.00131 s⁻¹
Kd ([3]; Ligand VitD2-250H-biotin (300 nM)): 95 nM
B1: wt-VDBP-His8: wild type vitamin D binding protein with C-terminally fused 8× Histidine tag, without Q2 tag (protein, UniProt P02774 17-474, looked up)
Vitamin D-binding protein: LERGRDYEKNKVCKEFSHLGKEDFTSLSLVLYSRKFPSGTFEQVSQLVKEVVSLTEACCAEGADPDCYDTRTSALSAKSCESNSPFPVHPGTAECCTKEGLERKLCMAALKHQPQEFPTYVEPTNDEICEAFRKDPKEYANQFMWEYSTNYGQAPLSLLVSYTKSYLSMVGSCCTSASPTVCFLKERLQLKHLSLLTTLSNRVCSQYAAYGEKKSRLSNLIKLAQKVPTADLEDVLPLAEDITNILSKCCESASEDCMAKELPEHTVKLCDNLSTKNSKFEDCCQEKTAMDVFVCTYFMPAAQLPELPDVELPTNKDVCDPGNTKVMDKYTFELSRRTHLPEVFLSKVLEPTLKSLGECCDVEDSTTCFNAKGPLLKKELSSFIDKGQELCADYSENTFTEYKKKLAERLKAKLPDATPTELAKLVNKHSDFASNCCSINSPPLYCDSEIDAELKNIL
modifications: His8 tag
